Data on 3 proteins can be found in patent US20030215874A1 (published 2003).

Series [1] concerns the molecule itself. In words: blue native PAGE (legend of FIG. 4), self-association.
Series [2] deals with the molecule itself. In words: blue native PAGE (BN-PAGE), self-association.

B1: bis-ANS treated GRP94 (porcine pancreas GRP94 preincubated with bis-ANS) (other, UniProt Q29092 22-804, looked up)
chain: EDEVDVDGTVEEDLGKSREGSRTDDEVVQREEEAIQLDGLNASQIRELREKSEKFAFQAEVNRMMKLIINSLYKNKEIFLRELISNASDALDKIRLISLTDENALAGNEELTVKIKCDKEKNLLHVTDTGVGMTREELVKNLGTIAKSGTSEFLNKMAEAQEDGQSTSELIGQFGVGFYSAFLVADKVIVTSKHNNDTQHIWESDSNEFSVIADPRGNTLGRGTTITLVLKEEASDYLELDTIKNLVKKYSQFINFPIYVWSSKTETVEEPMEEEEAAKEEKEESDDEAAVEEEEEEKKPKTKKVEKTVWDWELMNDIKPIWQRPSKEVEDDEYKAFYKSFSKESDDPMAYIHFTAEGEVTFKSILFVPTSAPRGLFDEYGSKKSDYIKLYVRRVFITDDFHDMMPKYLNFVKGVVDSDDLPLNVSRETLQQHKLLKVIRKKLVRKTLDMIKKIADEKYNDTFWKEFGTNIKLGVIEDHSNRTRLAKLLRFQSSHHPSDITSLDQYVERMKEKQDKIYFMAGSSRKEAESSPFVERLLKKGYEVIYLTEPVDEYCIQALPEFDGKRFQNVAKEGVKFDESEKSKENREAVEKEFEPLLNWMKDKALKDKIEKAVVSQRLTESPCALVASQYGWSGNMERIMKAQAYQTGKDISTNYYASQKKTFEINPRHPLIRDMLRRVKEDEDDKTVSDLAVVLFETATLRSGYLLPDTKAYGDRIERMLRLSLNIDPDAKVEEEPEEEPEETTEDTTEDTEQDDDEEMDAGADEEEQETSETSTAEKDEL
In the case of B1, the binding result in series [1] is “binds”.

B2: heat shocked GRP94 (porcine pancreas GRP94 incubated 15 minutes at 50 C) (other, UniProt Q29092 22-804, looked up)
chain: B1 chain
notes: also called hs GRP94; heat-treated GRP94
In the case of B2, in series [2], the binding result was “binds”.

B3: GRP94 (glucose regulated protein of 94 kDa), native, purified from porcine pancreas (other, UniProt Q29092 22-804, looked up)
chain: B1 chain
notes: also called native GRP94; gp96
Regarding B3, the binding result in series [2] is given as “binds”.
